Measurements published in paper PMC11109957.

Target: OGG1 (UniProt O15527)
Assay: co-IP, Western blot
Conditions: reference: wild type, KBrO3; sites S46,S53

binding against the reference: weaker
Substance: SIRT2 (from UniProt Q8IXJ6) S46AS53A, KBrO3
